In publication PMC7615196, “PIM1 controls GBP1 activity to limit self-damage and to guard against pathogen infection” (Science (New York, N.Y.), 2023):

Legend:
[1] = target: endogenous GBP1 (IFNγ-treated THP-1 cells) (human (endogenous in THP-1)) (UniProt P32455); assay: cross-linking; GBP1 oligomerization assay: THP-1 cells (IFNγ±Dox; also ΔPIM1 or Δ14-3-3σ cells) lysed, GBP1 precipitated with CHAPS buffer, pellets cross-linked with 4 mM DSS for 30 minutes at room temperature, immunoblot
[2] = target: phosphorylated Flag-GBP1 (GBP1pS156) purified from THP-1ΔGBP1+Tet-Flag-GBP1 WT cells (human) (UniProt P32455); assay: co-IP; semi-quantitative co-immunoprecipitation: purified phosphorylated Flag-GBP1 bound to Flag(M2)-agarose beads, incubated with different concentrations of purified HA-14-3-3 proteins for 1 hour at 4°C in 25 mM HEPES pH 7.3, 100 mM NaCl, 0.01% Triton X-100, 5% glycerol, 1 mM DTT; blots …
[3] = target: recombinant GBP1 (non-phosphorylated) (human) (UniProt P32455); assay: SEC; GBP1 dimerization: samples without nucleotide or incubated with 1 mM GTP or 1 mM GDP + 10 mM AlF3; free GBP1 or phosphorylated, 14-3-3σ-bound GBP1
14-3-3ε = 14-3-3ε (UniProt P62258); assay: co-IP of Flag-GBP1 and HA-14-3-3; settings: reference: wild type; sites S156
14-3-3σ = 14-3-3σ (UniProt P31947); assay: co-IP of Flag-GBP1 and HA-14-3-3; settings: reference: wild type; sites S156
14-3-3θ = 14-3-3θ (UniProt P27348); assay: co-IP of Flag-GBP1 and HA-14-3-3; settings: reference: wild type; sites S156
14-3-3η = 14-3-3η (UniProt Q04917); assay: co-IP of Flag-GBP1 and HA-14-3-3; settings: reference: wild type; sites S156
14-3-3β = 14-3-3β (UniProt P31946); assay: co-IP of Flag-GBP1 and HA-14-3-3; settings: reference: wild type; sites S156
14-3-3γ = 14-3-3γ (UniProt P61981); assay: co-IP of Flag-GBP1 and HA-14-3-3; settings: reference: wild type; sites S156
14-3-3ζ = 14-3-3ζ (UniProt P63104); assay: co-IP of Flag-GBP1 and HA-14-3-3; settings: reference: wild type; sites S156
[4] = target: T1, phosphorylated Flag-GBP1 (GBP1pS156) purified from THP-1ΔGBP1+Tet-Flag-GBP1 WT cells (human, UniProt P32455 1-592, phosphoserine at 156); assay: GBP1 phosphorylated at S156; semi-quantitative co-IP
T1 chain: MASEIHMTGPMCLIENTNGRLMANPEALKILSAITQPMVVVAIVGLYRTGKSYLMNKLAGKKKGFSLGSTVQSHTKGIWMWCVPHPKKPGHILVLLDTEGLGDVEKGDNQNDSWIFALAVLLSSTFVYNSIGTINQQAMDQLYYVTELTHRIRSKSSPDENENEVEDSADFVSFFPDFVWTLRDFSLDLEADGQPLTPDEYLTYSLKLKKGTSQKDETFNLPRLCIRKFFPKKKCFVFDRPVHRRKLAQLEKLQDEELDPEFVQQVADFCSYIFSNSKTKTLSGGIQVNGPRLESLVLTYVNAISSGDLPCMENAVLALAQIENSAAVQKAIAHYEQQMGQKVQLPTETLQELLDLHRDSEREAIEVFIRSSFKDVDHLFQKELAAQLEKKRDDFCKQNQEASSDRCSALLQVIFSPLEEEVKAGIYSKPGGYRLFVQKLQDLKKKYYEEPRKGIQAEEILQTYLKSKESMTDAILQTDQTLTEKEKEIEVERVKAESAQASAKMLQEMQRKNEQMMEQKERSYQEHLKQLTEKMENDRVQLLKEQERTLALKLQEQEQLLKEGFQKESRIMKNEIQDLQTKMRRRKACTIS

[5] = target: the molecule itself; assay: cross-linking; GBP1 oligomerization assay: THP-1 cells (IFNγ±Dox; also ΔPIM1 or Δ14-3-3σ cells) lysed, GBP1 precipitated with CHAPS buffer, pellets cross-linked with 4 mM DSS for 30 minutes at room temperature, immunoblot

“endogenous GBP1 (IFNγ-treated THP-1 cells) (from UniProt P32455 1-592) (natural protein)” gave a stoichiometry N [1] of 2.

“HA-14-3-3σ (from UniProt P31947 1-248) (natural protein)” showed a Kd [2] of 370 nM.

“recombinant GBP1 (non-phosphorylated) (from UniProt P32455 1-592) (natural protein)” was tested, and the stoichiometry N [3] was 2.

GBP1 (from UniProt P32455) S156A was tested, and the “binding against the reference” value (14-3-3ε) was “lost”, the “binding against the reference” value (14-3-3σ) was “lost” and the “binding against the reference” value (14-3-3θ) was “lost”. The “binding against the reference” value (14-3-3η) was “lost”, the “binding against the reference” value (14-3-3β) was “lost” and the “binding against the reference” value (14-3-3γ) was “lost”. The “binding against the reference” value (14-3-3ζ) was “lost”.

B1: HA-14-3-3ζ (natural protein)
chain: MDKNELVQKAKLAEQAERYDDMAACMKSVTEQGAELSNEERNLLSVAYKNVVGARRSSWRVVSSIEQKTEGAEKKQQMAREYREKIETELRDICNDVLSLLEKFLIPNASQAESKVFYLKMKGDYYRYLAEVAAGDDKKGIVDQSQQAYQEAFEISKKEMQPTHPIRLGLALNFSVFYYEILNSPEKACSLAKTAFDEAIAELDTLSEESYKDSTLIMQLLRDNLTLWTSDTQGDEAEAGEGGEN
B1 was tested, and the Kd [4] was 1120 nM.

B2: HA-14-3-3θ (natural protein)
chain: MEKTELIQKAKLAEQAERYDDMATCMKAVTEQGAELSNEERNLLSVAYKNVVGGRRSAWRVISSIEQKTDTSDKKLQLIKDYREKVESELRSICTTVLELLDKYLIANATNPESKVFYLKMKGDYFRYLAEVACGDDRKQTIDNSQGAYQEAFDISKKEMQPTHPIRLGLALNFSVFYYEILNNPELACTLAKTAFDEAIAELDTLNEDSYKDSTLIMQLLRDNLTLWTSDSAGEECDAAEGAEN
B2 showed a Kd [4] of 1730 nM.

B3: HA-14-3-3γ (natural protein)
chain: MVDREQLVQKARLAEQAERYDDMAAAMKNVTELNEPLSNEERNLLSVAYKNVVGARRSSWRVISSIEQKTSADGNEKKIEMVRAYREKIEKELEAVCQDVLSLLDNYLIKNCSETQYESKVFYLKMKGDYYRYLAEVATGEKRATVVESSEKAYSEAHEISKEHMQPTHPIRLGLALNYSVFYYEIQNAPEQACHLAKTAFDDAIAELDTLNEDSYKDSTLIMQLLRDNLTLWTSDQQDDDGGEGNN
In the case of B3, the Kd [4] is reported as 4200 nM.

B4: HA-14-3-3ε (natural protein)
chain: MDDREDLVYQAKLAEQAERYDEMVESMKKVAGMDVELTVEERNLLSVAYKNVIGARRASWRIISSIEQKEENKGGEDKLKMIREYRQMVETELKLICCDILDVLDKHLIPAANTGESKVFYYKMKGDYHRYLAEFATGNDRKEAAENSLVAYKAASDIAMTELPPTHPIRLGLALNFSVFYYEILNSPDRACRLAKAAFDDAIAELDTLSEESYKDSTLIMQLLRDNLTLWTSDMQGDGEEQNKEALQDVEDENQ
B4 was tested, and the Kd [4] was 1860 nM.

B5: HA-14-3-3η (natural protein)
chain: MGDREQLLQRARLAEQAERYDDMASAMKAVTELNEPLSNEDRNLLSVAYKNVVGARRSSWRVISSIEQKTMADGNEKKLEKVKAYREKIEKELETVCNDVLSLLDKFLIKNCNDFQYESKVFYLKMKGDYYRYLAEVASGEKKNSVVEASEAAYKEAFEISKEQMQPTHPIRLGLALNFSVFYYEIQNAPEQACLLAKQAFDDAIAELDTLNEDSYKDSTLIMQLLRDNLTLWTSDQQDEEAGEGN
With B5 the Kd [4] was 6430 nM.

B6: HA-14-3-3β (natural protein)
chain: MTMDKSELVQKAKLAEQAERYDDMAAAMKAVTEQGHELSNEERNLLSVAYKNVVGARRSSWRVISSIEQKTERNEKKQQMGKEYREKIEAELQDICNDVLELLDKYLIPNATQPESKVFYLKMKGDYFRYLSEVASGDNKQTTVSNSQQAYQEAFEISKKEMQPTHPIRLGLALNFSVFYYEILNSPEKACSLAKTAFDEAIAELDTLNEESYKDSTLIMQLLRDNLTLWTSENQGDEGDAGEGEN
In the case of B6, the Kd [4] is reported as 2310 nM.

B7: GBP1^S156A (Dox-inducible, THP-1ΔGBP1+GBP1^S156A cells) (natural protein, human, UniProt P32455 1-592, looked up)
chain: MASEIHMTGPMCLIENTNGRLMANPEALKILSAITQPMVVVAIVGLYRTGKSYLMNKLAGKKKGFSLGSTVQSHTKGIWMWCVPHPKKPGHILVLLDTEGLGDVEKGDNQNDSWIFALAVLLSSTFVYNSIGTINQQAMDQLYYVTELTHRIRSKASPDENENEVEDSADFVSFFPDFVWTLRDFSLDLEADGQPLTPDEYLTYSLKLKKGTSQKDETFNLPRLCIRKFFPKKKCFVFDRPVHRRKLAQLEKLQDEELDPEFVQQVADFCSYIFSNSKTKTLSGGIQVNGPRLESLVLTYVNAISSGDLPCMENAVLALAQIENSAAVQKAIAHYEQQMGQKVQLPTETLQELLDLHRDSEREAIEVFIRSSFKDVDHLFQKELAAQLEKKRDDFCKQNQEASSDRCSALLQVIFSPLEEEVKAGIYSKPGGYRLFVQKLQDLKKKYYEEPRKGIQAEEILQTYLKSKESMTDAILQTDQTLTEKEKEIEVERVKAESAQASAKMLQEMQRKNEQMMEQKERSYQEHLKQLTEKMENDRVQLLKEQERTLALKLQEQEQLLKEGFQKESRIMKNEIQDLQTKMRRRKACTIS
notes: pLenti-Tet-GBP1 mutated by site-directed mutagenesis; also called phosphodeficient GBP1; source: THP-1ΔGBP1+Tet-GBP1 S156A, Dox-induced, in lysate
For B7, the “stoichiometry N” value [5] was 2.

B8: GBP1^R153A/P158A (14-3-3 binding motif mutant, Dox-inducible in THP-1ΔGBP1) (natural protein, human, UniProt P32455 1-592, looked up)
chain: MASEIHMTGPMCLIENTNGRLMANPEALKILSAITQPMVVVAIVGLYRTGKSYLMNKLAGKKKGFSLGSTVQSHTKGIWMWCVPHPKKPGHILVLLDTEGLGDVEKGDNQNDSWIFALAVLLSSTFVYNSIGTINQQAMDQLYYVTELTHRIASKSSADENENEVEDSADFVSFFPDFVWTLRDFSLDLEADGQPLTPDEYLTYSLKLKKGTSQKDETFNLPRLCIRKFFPKKKCFVFDRPVHRRKLAQLEKLQDEELDPEFVQQVADFCSYIFSNSKTKTLSGGIQVNGPRLESLVLTYVNAISSGDLPCMENAVLALAQIENSAAVQKAIAHYEQQMGQKVQLPTETLQELLDLHRDSEREAIEVFIRSSFKDVDHLFQKELAAQLEKKRDDFCKQNQEASSDRCSALLQVIFSPLEEEVKAGIYSKPGGYRLFVQKLQDLKKKYYEEPRKGIQAEEILQTYLKSKESMTDAILQTDQTLTEKEKEIEVERVKAESAQASAKMLQEMQRKNEQMMEQKERSYQEHLKQLTEKMENDRVQLLKEQERTLALKLQEQEQLLKEGFQKESRIMKNEIQDLQTKMRRRKACTIS
notes: pLenti-Tet-GBP1 mutated by site-directed mutagenesis; source: THP-1ΔGBP1+Tet-GBP1 mutant, Dox-induced, in lysate
B8 was tested, and the “stoichiometry N” value [5] was 2.

B9: GBP1^R151A/R153A/K155A (kinase motif mutant, Dox-inducible in THP-1ΔGBP1) (natural protein, human, UniProt P32455 1-592, looked up)
chain: MASEIHMTGPMCLIENTNGRLMANPEALKILSAITQPMVVVAIVGLYRTGKSYLMNKLAGKKKGFSLGSTVQSHTKGIWMWCVPHPKKPGHILVLLDTEGLGDVEKGDNQNDSWIFALAVLLSSTFVYNSIGTINQQAMDQLYYVTELTHAIASASSPDENENEVEDSADFVSFFPDFVWTLRDFSLDLEADGQPLTPDEYLTYSLKLKKGTSQKDETFNLPRLCIRKFFPKKKCFVFDRPVHRRKLAQLEKLQDEELDPEFVQQVADFCSYIFSNSKTKTLSGGIQVNGPRLESLVLTYVNAISSGDLPCMENAVLALAQIENSAAVQKAIAHYEQQMGQKVQLPTETLQELLDLHRDSEREAIEVFIRSSFKDVDHLFQKELAAQLEKKRDDFCKQNQEASSDRCSALLQVIFSPLEEEVKAGIYSKPGGYRLFVQKLQDLKKKYYEEPRKGIQAEEILQTYLKSKESMTDAILQTDQTLTEKEKEIEVERVKAESAQASAKMLQEMQRKNEQMMEQKERSYQEHLKQLTEKMENDRVQLLKEQERTLALKLQEQEQLLKEGFQKESRIMKNEIQDLQTKMRRRKACTIS
notes: as for B8
In the case of B9, the “stoichiometry N” value [5] is reported as 2.
